Patent US20210347891A1
One block for each substance: values may come before it.

Tests used:
[1] = biological target: single chain FcRn-β2m-his (human scFcRn, Acro Biosystems Cat. No. FCM-H5286) (human) (UniProt P55899); test: FACS of E. coli spheroplasts displaying the IgG, 10 nM scFcRn-FITC at pH 5.8
[2] = biological target: dimeric human FcRn-β2m-GST (human) (UniProt P55899); test: FACS of E. coli spheroplasts displaying the IgG, 50 nM dFcRn-GST-APC at pH 7.4
[3] = biological target: dimeric FcγRIIa-R131-GST (human) (human) (UniProt P12318); test: ELISA: antibody coated, serially diluted GST-FcγRIIaR131 (the concentration is that of the receptor), anti-GST HRP
dimeric FcγRIIa-R131-GST (human) (human), sequence (P12318 34-218 H167R limits assumed): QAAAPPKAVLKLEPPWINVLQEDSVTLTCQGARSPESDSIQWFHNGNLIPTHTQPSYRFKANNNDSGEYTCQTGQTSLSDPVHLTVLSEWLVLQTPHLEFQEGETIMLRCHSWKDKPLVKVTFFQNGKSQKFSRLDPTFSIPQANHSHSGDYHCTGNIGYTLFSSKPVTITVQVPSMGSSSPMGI

C1q = C1q (UniProt P02745); test: SPR, antibody on CM5 chip, C1q injected, pH 7.4 HBS-EP
C1q, sequence (P02745 23-245 limits assumed, chain 1 of 3): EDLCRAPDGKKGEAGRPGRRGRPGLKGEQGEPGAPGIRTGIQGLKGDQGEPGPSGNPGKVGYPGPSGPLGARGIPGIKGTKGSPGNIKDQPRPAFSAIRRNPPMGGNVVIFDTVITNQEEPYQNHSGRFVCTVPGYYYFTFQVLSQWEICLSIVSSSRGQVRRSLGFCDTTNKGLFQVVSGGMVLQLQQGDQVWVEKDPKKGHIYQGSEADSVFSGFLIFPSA
C1q, sequence (P02746 28-253 limits assumed, chain 2 of 3, further chain): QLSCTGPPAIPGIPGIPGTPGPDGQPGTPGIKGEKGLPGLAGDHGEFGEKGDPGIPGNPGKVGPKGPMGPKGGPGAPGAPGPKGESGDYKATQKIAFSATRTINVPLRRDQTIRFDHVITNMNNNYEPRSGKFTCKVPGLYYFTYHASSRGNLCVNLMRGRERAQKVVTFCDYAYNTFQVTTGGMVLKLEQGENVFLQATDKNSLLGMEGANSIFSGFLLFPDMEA
C1q, sequence (P02747 29-245 limits assumed, chain 3 of 3, further chain): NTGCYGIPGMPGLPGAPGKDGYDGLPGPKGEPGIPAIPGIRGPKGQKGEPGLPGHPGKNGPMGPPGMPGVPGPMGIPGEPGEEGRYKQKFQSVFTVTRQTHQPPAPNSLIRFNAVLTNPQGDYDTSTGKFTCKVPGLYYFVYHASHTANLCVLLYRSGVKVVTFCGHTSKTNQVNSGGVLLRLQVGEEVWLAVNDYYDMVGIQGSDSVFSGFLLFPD

[4] = biological target: dimeric FcγRIIb-GST (human) (human) (UniProt P31994); test: ELISA: antibody coated, serially diluted GST-FcγRIIb (the concentration is that of the receptor), anti-GST HRP
dimeric FcγRIIb-GST (human) (human), sequence (P31994 43-217 limits assumed): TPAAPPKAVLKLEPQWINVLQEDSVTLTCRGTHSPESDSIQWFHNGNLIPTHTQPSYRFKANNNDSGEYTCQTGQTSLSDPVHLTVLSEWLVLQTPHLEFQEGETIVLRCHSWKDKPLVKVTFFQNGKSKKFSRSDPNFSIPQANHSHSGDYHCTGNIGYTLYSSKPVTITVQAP

[5] = biological target: dimeric FcγRIIIa-F158-GST (human) (human) (UniProt P08637); test: SPR, antibody on CM5 chip, receptor injected, pH 7.4 HBS-EP
dimeric FcγRIIIa-F158-GST (human) (human), sequence (P08637 17-208 limits assumed): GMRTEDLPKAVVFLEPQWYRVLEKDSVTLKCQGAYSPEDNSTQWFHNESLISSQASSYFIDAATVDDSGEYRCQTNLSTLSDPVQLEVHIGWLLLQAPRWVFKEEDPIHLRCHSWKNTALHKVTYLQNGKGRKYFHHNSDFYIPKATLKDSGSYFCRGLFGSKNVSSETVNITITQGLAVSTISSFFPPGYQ

[6] = biological target: dimeric FcγRIIa-H131-GST (human) (human) (UniProt P12318); test: as above
dimeric FcγRIIa-H131-GST (human) (human), sequence (P12318 34-218 limits assumed): as the sequence (P12318 34-218 H167R limits assumed) above, with R134H counted along it

[7] = biological target: dimeric FcγRIIb-GST (human) (human) (UniProt P31994); test: as above
[8] = biological target: monomeric FcγRI-His (human) (human) (UniProt P12314); test: as above
monomeric FcγRI-His (human) (human), sequence (P12314 16-288 limits assumed): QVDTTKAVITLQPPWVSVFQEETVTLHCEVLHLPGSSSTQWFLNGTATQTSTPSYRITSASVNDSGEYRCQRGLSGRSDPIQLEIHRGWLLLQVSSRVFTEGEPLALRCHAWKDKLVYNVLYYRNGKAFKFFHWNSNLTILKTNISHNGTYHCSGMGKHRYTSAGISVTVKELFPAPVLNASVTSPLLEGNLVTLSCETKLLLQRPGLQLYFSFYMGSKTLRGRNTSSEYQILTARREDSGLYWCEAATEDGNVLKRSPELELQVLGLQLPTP

[9] = biological target: dimeric FcγRIIa-R131-GST (human) (human) (UniProt P12318); test: as above
[10] = biological target: single chain FcRn-β2m-his (human scFcRn, Acro Biosystems Cat. No. FCM-H5286) (human) (UniProt P55899); test: SPR, antibody on CM5 chip, FcRn/β2m injected, pH 5.8 (same values as Table 5)
[11] = biological target: single chain FcRn-β2m-his (human scFcRn, Acro Biosystems Cat. No. FCM-H5286) (human) (UniProt P55899); test: SPR, antibody on CM5 chip, scFcRn 400-25 nM, pH 5.8 PBS, 1:1 Langmuir
[12] = biological target: single chain FcRn-β2m-his (human scFcRn, Acro Biosystems Cat. No. FCM-H5286) (human) (UniProt P55899); test: SPR, antibody on CM5 chip, scFcRn, pH 5.8
[13] = biological target: single chain FcRn-β2m-his (human scFcRn, Acro Biosystems Cat. No. FCM-H5286) (human) (UniProt P55899); test: SPR, antibody on CM5 chip, scFcRn 400-25 nM, pH 5.8 PBS
[14] = biological target: single chain FcRn-β2m-his (human scFcRn, Acro Biosystems Cat. No. FCM-H5286) (human) (UniProt P55899); test: SPR at pH 7.4 PBS, scFcRn on CM5 chip at high density (4000 RU), antibody 400-25 nM injected
[15] = biological target: dimeric human FcRn-β2m-GST (human) (UniProt P55899); test: ELISA at pH 7.4: antibody coated, serially diluted dFcRn (the concentration is that of dFcRn), anti-GST HRP
[16] = biological target: single chain FcRn-β2m-his (human scFcRn, Acro Biosystems Cat. No. FCM-H5286) (human) (UniProt P55899); test: SPR at pH 7.4 PBS, scFcRn on CM5 chip at medium density (2000 RU), antibody 400-25 nM injected

single chain FcRn-β2m-his (human scFcRn, Acro Biosystems Cat. No. FCM-H5286) (human), sequence (P55899 other isoform, or with tags, fused parts or gaps): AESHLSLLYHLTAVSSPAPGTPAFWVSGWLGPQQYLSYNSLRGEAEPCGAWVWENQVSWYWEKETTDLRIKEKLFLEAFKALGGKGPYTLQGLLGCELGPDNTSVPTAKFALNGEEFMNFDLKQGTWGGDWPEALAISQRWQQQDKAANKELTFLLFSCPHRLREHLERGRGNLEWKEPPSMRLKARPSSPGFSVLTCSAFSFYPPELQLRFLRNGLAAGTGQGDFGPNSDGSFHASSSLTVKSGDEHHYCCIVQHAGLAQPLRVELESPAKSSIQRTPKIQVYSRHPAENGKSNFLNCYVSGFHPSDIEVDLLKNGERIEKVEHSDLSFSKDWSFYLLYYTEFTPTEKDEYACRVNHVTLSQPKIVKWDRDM
dimeric human FcRn-β2m-GST (human), sequence (P55899 other isoform, or with tags, fused parts or gaps limits assumed): as the sequence (P55899 other isoform, or with tags, fused parts or gaps) above
Herceptin-IgG4 (wild type IgG4 with the Fab of trastuzumab) (antibody), sequence (Fc): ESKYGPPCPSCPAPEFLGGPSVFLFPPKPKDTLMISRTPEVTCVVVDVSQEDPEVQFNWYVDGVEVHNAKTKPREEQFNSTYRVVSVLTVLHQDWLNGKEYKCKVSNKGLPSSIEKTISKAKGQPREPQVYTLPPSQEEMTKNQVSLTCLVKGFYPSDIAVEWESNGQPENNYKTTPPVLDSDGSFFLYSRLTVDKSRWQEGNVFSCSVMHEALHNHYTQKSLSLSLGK

Substance: EDH (V264E, L309D, and Q311H), IgG displayed on E. coli spheroplasts (antibody)
- M (mean fluorescence intensity) [1]: 135
- M (mean fluorescence intensity) [2]: 20.4

Substance: EDHY (V264E, L309D, Q311H, and N434Y), IgG displayed on E. coli spheroplasts (antibody)
- M (mean fluorescence intensity) [1]: 265
- M (mean fluorescence intensity) [2]: 379

Substance: Herceptin-DHS (L309D; Q311H; N434S) (antibody)
- EC50 (read off the curve) [3]: 7 nM
- Kd (C1q): 25 nM
- EC50 (read off the curve) [4]: 4 nM
- Kd [5]: 480 nM
- Kd [6]: 270 nM
- Kd [7]: 2910 nM
- Kd [8]: 0.28 nM
- Kd [9]: 950 nM
- Kd [10]: 110 nM
- Kd [11]: 111 nM

Substance: Herceptin-EDH (V264E, L309D, Q311H) (antibody)
- Kd [11]: 487 nM
- koff [11]: 0.23 s⁻¹
- kon [11]: 465000 M⁻¹ s⁻¹

Substance: Herceptin-EDHS (V264E, L309D, Q311H, N434S) (antibody)
- fold enhanced affinity than Herceptin [12]: 5.9 fold
- Kd [11]: 93 nM
- koff [11]: 0.11 s⁻¹
- kon [11]: 1.2e+06 M⁻¹ s⁻¹

Substance: Herceptin-YTE (M252Y/S254T/T256E) (antibody)
- Kd [14]: 4290 nM
- Kd (C1q): 42 nM
- Kd [5]: 4410 nM
- Kd [6]: 620 nM
- Kd [7]: 6240 nM
- Kd [8]: 0.29 nM
- Kd [9]: 3200 nM
- Kd [10]: 23 nM
- Kd [16]: 4730 nM
- Kd [11]: 23 nM

Substance: M428L/N434S (antibody)
- M (mean fluorescence intensity) [1]: 152
- M (mean fluorescence intensity) [2]: 83.3

Substance: TEDHY (A231T, V264E, L309D, Q311H, and N434Y), IgG displayed on E. coli spheroplasts (antibody)
- M (mean fluorescence intensity) [1]: 231
- M (mean fluorescence intensity) [2]: 237

The remaining lines, values ahead:

- M (mean fluorescence intensity) [1]: 239
- M (mean fluorescence intensity) [2]: 60.3
Substance: EDHS (V264E, L309D, Q311H, and N434S), IgG displayed on E. coli spheroplasts (antibody)

- fold enhanced affinity than Herceptin [12]: 19.6 fold
- Kd [11]: 28 nM
- koff [11]: 0.038 s⁻¹
- kon [11]: 1.4e+06 M⁻¹ s⁻¹
Substance: Herceptin-EDHY (V264E, L309D, Q311H, N434Y) (antibody)

- Kd [13]: 2460 nM
Substance: Herceptin-IgG4 (wild type IgG4 with the Fab of trastuzumab) (antibody)

- Kd [14]: 22.7 nM
- Kd (C1q): 16 nM
- Kd [6]: 410 nM
- Kd [7]: 2250 nM
- Kd [8]: 0.58 nM
- Kd [9]: 1210 nM
- EC50 (read off the curve) [15]: 10 nM
- Kd [10]: 55 nM
- Kd [16]: 58.7 nM
- Kd [11]: 55 nM
Substance: Herceptin-LS (M428L/N434S) (antibody)
